Measured values from paper PMC5527020.

Tests used:
[1] = test system: Hepatitis B surface antigen (HBs Ag); assay: magnetic-bead pull-down with q-PCR; details: BD buffer: 50 mM NaH2PO4 pH 8.0, 150 mM NaCl, 5 mM KCl, 2 mM MgCl2, 0.05% Tween-20; room temperature, 30 min; aptamer heated to 95 C and cooled at 4 C
HCV NS3 = assay: magnetic-bead pull-down with q-PCR; details: BD buffer: 50 mM NaH2PO4 pH 8.0, 150 mM NaCl, 5 mM KCl, 2 mM MgCl2, 0.05% Tween-20; room temperature, 30 min; aptamer heated to 95 C and cooled at 4 C

Q: How did the Kd [1] turn out when “AGCAGCACAGAGGTCCTGCATCACGAAGCCTGGCAGCGTGCTACCGTGAA [MP-1]” was run?
A: 28.3 nM

Q: What about the Kd (HCV NS3) of the same sequence?
A: 23.3 nM
